Reference: article PMC4634331, “Single-molecule spectroscopy exposes hidden states in an enzymatic electron relay” (Nature Communications, 2015)

Substrate: OC(CS)C(O)CS
Assay: oxygen consumption, Clark-type oxygen electrode
Format: biochemical, Trypanosoma brucei
Settings: O2 as electron acceptor, air-saturated, 25 °C, 50 nM enzyme, Michaelis-Menten fit of data up to 1 mM DTT (turnover rises beyond the fit above 1 mM)

B1: TbQSOX (Trypanosoma brucei brucei TREU927) (protein)
chain: SVAQVATGSPRPGLFHLDSSVVDLSGDDFSRVHRVAPLCPWIVLFYNDGCGACRRYASTFSKFAGGLKVEHGKDALQIATAAAVNCASEVDLCRKYDINFVPRLFFFYPRDSCRSNEECGTSSLEHVAFENSHLEVDELESEVRRLVNKHMVVDDSLKERCIDMHFKLYTSKEELVKRSVSSTDESGRFVETTELYATDIAGAFFSAMHYDVSLVGTEPRERLTALEDFVLLVKDSLPSIGADGVVSALESITAERPFTVASWQDAVVKSGIPFDGSPRNVRWRTCRGSSPQYRGFPCGMWLLLHALTVNTPADRNVLEVIQNYIRYFFSCKECRDHFIQFNFSPNEDPVLQLWRAHNNVNARLANVKDGADPLVPKRQFPTLEACTECYDGAGNFIEAHVTGFLKQRYLWDPKAVGLMESNDDLNEVDPASKDANVGRNVESSGKGKGDGGARGNSKEVRSDHAG
- Km: 65 ± 10 µM
